Data from patent US20150376276A1 (Seagen, published 2015).

T1: human NTB-A (human, UniProt Q96DU3 22-332)
T1 construct: whole, on cells; also called SLAMF6; hNTB-A
T1 sequence (looked up): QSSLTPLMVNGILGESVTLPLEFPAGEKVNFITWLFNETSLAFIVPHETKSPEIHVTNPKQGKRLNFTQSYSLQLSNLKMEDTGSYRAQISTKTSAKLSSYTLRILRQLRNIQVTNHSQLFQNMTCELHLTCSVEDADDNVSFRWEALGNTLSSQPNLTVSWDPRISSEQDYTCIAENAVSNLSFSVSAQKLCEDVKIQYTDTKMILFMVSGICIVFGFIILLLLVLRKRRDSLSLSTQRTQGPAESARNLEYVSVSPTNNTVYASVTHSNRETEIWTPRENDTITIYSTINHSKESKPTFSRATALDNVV


Experiments:
[1] = target: T1, human NTB-A; test: flow cytometry competition on NTB-A positive Ramos cells; competitor: AF647-labelled 11A1 at 0.0188 ug/mL; half of the partial effect, not 50% of maximum binding
[2] = target: T1, human NTB-A; test: flow cytometry competition on NTB-A positive Ramos cells; competitor: AF647-labelled 11A1 at 0.0188 ug/mL
From the text: To evaluate whether an antibody competes for specific binding to human NTB-A with a mAb comprising the VH and VL domains of the 11A1 mAb (i.e., a VH domain having the amino acid sequence as shown in residues 20-135 of SEQ ID NO:1 and a VL domain having the amino acid sequence as shown in residues 21-140 of SEQ ID NO:2), a competitive binding assay as follows is used.
This assay utilizes a “reference antibody” comprising the 11A1 murine IgG1 antibody (i.e., the 11A1 VH and VL domains in the bivalent structure of a native antibody). NTB-A positive Ramos cells are plated at 2×10⁵ cells per well in a 96 well V-bottom plate (Thermo Scientific, Rochester, N.Y.). […] The antibody solutions are incubated with cells for 1 hour on ice, protected from light. The cells are washed twice with FACs buffer and analyzed on the LSRII flow cytometer (BD BioSciences, San Jose, Calif.). Data are presented as percent of maximum binding. The sample antibody “competes with” the labeled reference antibody for specific binding to NTB-A if the sample antibody reduces the reference antibody's binding to NTB-A to levels less than 45% of maximum binding (i.e., 0 to 45%) at a concentration of 10 μg/ml of unlabeled sample antibody. […]

[3] = target: T1, human NTB-A; test: flow cytometry, saturation binding of Alexa Fluor 647-labelled antibody on Ramos cells
Protocol: Antigen positive Ramos cells were plated at 1×10⁵ cells per well in a 96 well V-bottom plate (Thermo Scientific, Rochester, N.Y.). Three-fold serial dilutions of 2× concentrated antibodies were prepared in FACs buffer (PBS+2% fetal bovine serum+0.02% azide) and were added to the cells in duplicate. The antibody solutions were incubated with cells for 1 hour on ice, protected from light. The cells were washed twice with FACs buffer and analyzed on the LSRII flow cytometer (BD BioSciences, San Jose, Calif.). KD values were determined with GraphPad Prism software (La Jolla, Calif.).

IC50 (read off the curve) [1] | IC50 (read off the curve) [2] | Kd [3] | Molecule
0.1 µg/mL | – | – | NT-7 antibody (clone: NT-7 (Biolegend #317208))
– | ~0.08 µg/mL | 0.16 nM | 26B7 murine IgG1 antibody (antibody, V domains shown, Murine IgG1; also called mAb 26B7) VH: QVQLLQPGAEVVKPGTSVKLSCKASGYNFTIYWINWVKLRPGQGLEWIGDIHPGRGNTNLNEKFKTKATLTVDTSSSTAYMQLNSLAFEDSALYYCAREDEDWYFDVWGAGTTVTVSS VL: DIQMNQSPSSLSASLGDTITITCRASQGISIWFNWYQQKSGNIPKLLIYKTSNLHTGVPPRFSGSGSGTDFTLTISSLQPEDIATYYCLQSQSYPYTFGGGTKLEIKR
